Reference: patent US11491212

B1: FIXa-Y155F/K247N/N249S/R338E/E410N (protein)
chain 1: not shown
chain 2: not shown
B2: FIXa-Y155F/K247N/N249S/R318Y/T343R/R403E (protein)
chain 1: not shown
chain 2: not shown
B3: FIXa-K247N/N249S/R318Y/T343R/R403E (protein)
chain 1: not shown
chain 2: not shown
B4: FIXa-K247N/N249S/R318Y/T343R/R403E/E410N (protein)
chain 1: not shown
chain 2: not shown
B5: FIXa-Y155F/K247N/N249S/R318Y/T343R/R403E/E410N (protein)
chain 1: not shown
chain 2: not shown

The proteins below were run against Factor X (FX), P00742.
Chain of Factor X (FX), P00742 (P00742 whole entry, looked up): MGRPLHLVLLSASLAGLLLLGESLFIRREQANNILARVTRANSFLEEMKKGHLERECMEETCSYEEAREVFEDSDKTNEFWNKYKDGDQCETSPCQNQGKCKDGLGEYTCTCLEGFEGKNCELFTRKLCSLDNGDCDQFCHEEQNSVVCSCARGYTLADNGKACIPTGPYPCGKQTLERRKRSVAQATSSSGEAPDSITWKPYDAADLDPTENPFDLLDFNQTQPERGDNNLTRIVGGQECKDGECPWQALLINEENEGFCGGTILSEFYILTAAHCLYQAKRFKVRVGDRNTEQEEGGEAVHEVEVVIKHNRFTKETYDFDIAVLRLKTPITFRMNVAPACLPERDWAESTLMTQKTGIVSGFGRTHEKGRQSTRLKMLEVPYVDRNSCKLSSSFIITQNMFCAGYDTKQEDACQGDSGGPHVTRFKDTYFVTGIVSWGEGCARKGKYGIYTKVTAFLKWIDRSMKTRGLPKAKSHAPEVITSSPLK
Work on B1 yielded a kcat of 7.3 s⁻¹.
With B2 the kcat was 7.5 s⁻¹.
B3 showed a kcat of 3.7 s⁻¹.
B4 showed a kcat of 9.5 s⁻¹.
B5 gave a kcat of 9 s⁻¹.

The proteins below were run against Factor X, P00742.
Chain of Factor X, P00742 (P00742 whole entry, looked up): as above
Protein B1 has a KM of 0.0177 µM.
Work on B2 yielded a KM of 0.0605 µM.
Work on B3 yielded a KM of 0.105 µM.
B4 showed a KM of 0.0805 µM.
Protein B5 has a KM of 0.0606 µM.
